Assay results taken from patent publication US20230359371A1 (MODERNATX, published 2023).

Biological target: T1, OX40 receptor on mouse CD4+ T-cells (mouse, UniProt P47741 20-272)
T1 sequence (looked up): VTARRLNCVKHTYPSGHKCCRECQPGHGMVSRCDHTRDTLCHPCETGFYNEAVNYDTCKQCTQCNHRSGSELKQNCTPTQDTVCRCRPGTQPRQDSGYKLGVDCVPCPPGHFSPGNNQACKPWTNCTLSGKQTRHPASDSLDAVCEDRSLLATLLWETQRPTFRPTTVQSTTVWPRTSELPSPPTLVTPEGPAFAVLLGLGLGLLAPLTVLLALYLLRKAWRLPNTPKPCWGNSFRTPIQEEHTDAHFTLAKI
Assay: cell-based or functional assay

mouse IL-2 production by CD4+ T-cells (IL-2 ELISA), fold over mock-treated or non-translated mRNA control (about 6 ng/ml): ~2 fold
B1: murine OX40L polypeptide expressed from mOX40L_miR122 mRNA (SEQ ID NO: 66) on the surface of B16F10 cells (ligand)
chain: MEGEGVQPLDENLENGSRPRFKWKKTLRLVVSGIKGAGMLLCFIYVCLQLSSSPAKDPPIQRLRGAVTRCEDGQLFISSYKNEYQTMEVQNNSVVIKCDGLYIIYLKGSFFQEVKIDLHFREDHNPISIPMLNDGRRIVFTVVASLAFKDKVYLTVNAPDTLCEHLQINDGELIVVQLTPGYCAPEGSYHSTVNQVPL
